Experimental data: article PMC6321638, “Thermodynamic Characterization of the Ca^2+-Dependent Interaction Between SOUL and ALG-2” (International Journal of Molecular Sciences, 2018)

B1: His-SOUL^WT (wild-type SOUL fused to His-tag) (natural protein, mouse, UniProt Q9WU63 1-205, looked up)
chain: MAEEPEPDLGVAEGSEDQALEMPSWKAPEDIDPQPGSYEIRHYGPAKWVSTCVESLDWDSAIQTGFTKLNGYIQGKNEKEMKIKLTAPVTSYVEPGSSPFSESTITISLYIPSEQQPDPPRPSESDVFIEDRAEMTVFVRSFDGFSSGQKNQEQLLTLANILREEGKVFNEKVFYTAGYSSPFQLLDRNNEVWLIQKNEPSVENK
notes: Cloned into the Nde I and Sal I sites of pET28a(+); this probably gives an N-terminal His-tag with a thrombin site (surmised); Dimer by gel filtration; also called mSOUL; source: E. coli BL21(DE3) with pGroESL, purified (Ni-NTA-agarose, Sephadex G-25)
B5: GST-ALG-2^WT (wild-type ALG-2 fused to GST-tag) (natural protein, mouse, UniProt P12815 1-191, looked up)
chain: MAAYSYRPGPGGGPGPAAGAALPDQSFLWNVFQRVDKDRSGVISDNELQQALSNGTWTPFNPVTVRSIISMFDRENKAGVNFSEFTGVWKYITDWQNVFRTYDRDNSGMIDKNELKQALSGFGYRLSDQFHDILIRKFDRQGRGQIAFDDFIQGCIVLQRLTDIFRRYDTDQDGWIQVSYEQYLSMVFSIV
notes: ALG-2 (apoptosis-linked gene 2, PDCD6), murine, 1-191 amino acids; Cloned into the BamH I and Sal I sites of pGEX-4T-2; GST is probably N-terminal (surmised); also called apoptosis-linked gene 2 protein; PDCD6; source: E. coli BL21-CodonPlus(DE3)-(RIPL), purified (ammonium sulfate, Glutathione Sepharose, Sephadex G-25)
B6: delta3-23ALG-2^∆GF (domain or fragment, mouse, UniProt P12815 1-191, looked up)
chain: MADQSFLWNVFQRVDKDRSGVISDNELQQALSNGTWTPFNPVTVRSIISMFDRENKAGVNFSEFTGVWKYITDWQNVFRTYDRDNSGMIDKNELKQALSGYRLSDQFHDILIRKFDRQGRGQIAFDDFIQGCIVLQRLTDIFRRYDTDQDGWIQVSYEQYLSMVFSIV
notes: ALG-2 (PDCD6), murine, deletion of the N-terminal 3-23 amino acids and of Gly121 and Phe122 (splice variant); numbers count on full-length ALG-2^WT; N-terminus as for m3; source: E. coli, purified (as delta3-23ALG-2)
B9: delta3-23ALG-2^WT (domain or fragment, mouse, UniProt P12815 1-191, looked up)
chain: MADQSFLWNVFQRVDKDRSGVISDNELQQALSNGTWTPFNPVTVRSIISMFDRENKAGVNFSEFTGVWKYITDWQNVFRTYDRDNSGMIDKNELKQALSGFGYRLSDQFHDILIRKFDRQGRGQIAFDDFIQGCIVLQRLTDIFRRYDTDQDGWIQVSYEQYLSMVFSIV
notes: ALG-2 (PDCD6), murine, with deletion of the N-terminal 3-23 amino acids (the hydrophobic 21 residues); the plasmid paragraph calls it 24-191 amino acids, without tag; source: E. coli BL21-CodonPlus(DE3)-(RIPL), purified (Ca2+ precipitation, HiTrap Q, Sephacryl S-200 HR)

Assays:
delta3-23ALG-2^WT [1] = molecular target: B9; assay: ITC; His-SOUL (130 or 260 µM) injected into delta3-23ALG-2 (5 or 10 µM); 25 °C, pH 7.5, buffer C (25 mM HEPES, 150 mM NaCl, 10% glycerol) with 15 µM CaCl2 and 0.25% Tween 20; one-set-of-sites model (sequential-binding-sites model also tried); conditions: both partners purified
delta3-23ALG-2^WT [2] = molecular target: B9; assay: SEC; Sephacryl-S-200 HR (150 mL), 1 mL of each protein sample (5 µM), buffer B with 20 µM CaCl2; fractions by SDS-PAGE; conditions: both partners purified
[3] = molecular target: the molecule itself; assay: as above
delta3-23ALG-2^WT [4] = molecular target: B9; assay: ITC; His-SOUL (130 or 260 µM) injected into delta3-23ALG-2 (5 or 10 µM); 25 °C, pH 7.5, buffer C (25 mM HEPES, 150 mM NaCl, 10% glycerol) with 15 µM CaCl2 and 0.25% Tween 20; one-set-of-sites model (sequential-binding-sites model also tried); conditions: both partners purified; remark: listed apart in the source
delta3-23ALG-2^∆GF = molecular target: B6; assay: as above; conditions: both partners purified
[5] = molecular target: B1; assay: pull-down; GST-pulldown: purified His-SOUL (5 µM) and GST-ALG-2 (5 µM) with Glutathione Sepharose 4B in buffer B (100 mM Tris-HCl pH 7.5, 100 mM NaCl, 10% glycerol) with 20 µM CaCl2 (or various amounts of Ca2+), 30 min at 4 °C; SDS-PAGE, Coomassie; conditions: both partners purified
[6] = molecular target: B1; assay: ITC; His-SOUL (130 or 260 µM) injected into delta3-23ALG-2 (5 or 10 µM); 25 °C, pH 7.5, buffer C (25 mM HEPES, 150 mM NaCl, 10% glycerol) with 15 µM CaCl2 and 0.25% Tween 20; one-set-of-sites model (sequential-binding-sites model also tried); conditions: both partners purified
[7] = molecular target: B5; assay: pull-down; GST-pulldown: purified His-SOUL (5 µM) and GST-ALG-2 (5 µM) with Glutathione Sepharose 4B in buffer B (100 mM Tris-HCl pH 7.5, 100 mM NaCl, 10% glycerol) with 20 µM CaCl2 (or various amounts of Ca2+), 30 min at 4 °C; SDS-PAGE, Coomassie; conditions: both partners purified

For B1, the “Kd of the first binding (sequential-binding-sites model)” value (delta3-23ALG-2^WT [1]) was 37 nM, the “Kd of the second binding (sequential-binding-sites model)” value (delta3-23ALG-2^WT [1]) was 40 nM and the “stoichiometry N” value (delta3-23ALG-2^WT [2]) was 1. For the same binder, the “stoichiometry N” value [3] was 2, the dH (delta3-23ALG-2^WT [4]) was -17.9 ± 0.7 kcal/mol and the “stoichiometry N” value (delta3-23ALG-2^WT [4]) was 1.16 ± 0.02. For the same binder, the dH (delta3-23ALG-2^∆GF) was -19.8 ± 2 kcal/mol and the “stoichiometry N” value (delta3-23ALG-2^∆GF) was 1 ± 0.07.

B2: GST-ALG-2 F85A (natural protein, mouse, UniProt P12815 1-191, looked up)
chain: MAAYSYRPGPGGGPGPAAGAALPDQSFLWNVFQRVDKDRSGVISDNELQQALSNGTWTPFNPVTVRSIISMFDRENKAGVNFSEATGVWKYITDWQNVFRTYDRDNSGMIDKNELKQALSGFGYRLSDQFHDILIRKFDRQGRGQIAFDDFIQGCIVLQRLTDIFRRYDTDQDGWIQVSYEQYLSMVFSIV
notes: ALG-2 (PDCD6), murine, 1-191 amino acids with F85A (pocket 3); source: E. coli, purified (as GST-ALG-2)
B2: binds [5].

B3: GST-ALG-2 L52A (natural protein, mouse, UniProt P12815 1-191, looked up)
chain: MAAYSYRPGPGGGPGPAAGAALPDQSFLWNVFQRVDKDRSGVISDNELQQAASNGTWTPFNPVTVRSIISMFDRENKAGVNFSEFTGVWKYITDWQNVFRTYDRDNSGMIDKNELKQALSGFGYRLSDQFHDILIRKFDRQGRGQIAFDDFIQGCIVLQRLTDIFRRYDTDQDGWIQVSYEQYLSMVFSIV
notes: ALG-2 (PDCD6), murine, 1-191 amino acids with L52A (pocket 3); source: E. coli, purified (as GST-ALG-2)
B3: binds [5].

B4: GST-ALG-2^∆GF (natural protein, mouse, UniProt P12815 1-191, looked up)
chain: MAAYSYRPGPGGGPGPAAGAALPDQSFLWNVFQRVDKDRSGVISDNELQQALSNGTWTPFNPVTVRSIISMFDRENKAGVNFSEFTGVWKYITDWQNVFRTYDRDNSGMIDKNELKQALSGYRLSDQFHDILIRKFDRQGRGQIAFDDFIQGCIVLQRLTDIFRRYDTDQDGWIQVSYEQYLSMVFSIV
notes: ALG-2 (PDCD6), murine, natural splice variant with deletion of Gly121 and Phe122; made by PCR-based mutagenesis of the 1-191 construct; also called ALG-2^ΔGF; source: E. coli, purified (as GST-ALG-2)
B4: binds [5].

B5: binds [5].

Binder B6 has a Kd [6] of 62 ± 13.7 nM.

B7: GST-ALG-2 I92A (natural protein, mouse, UniProt P12815 1-191, looked up)
chain: MAAYSYRPGPGGGPGPAAGAALPDQSFLWNVFQRVDKDRSGVISDNELQQALSNGTWTPFNPVTVRSIISMFDRENKAGVNFSEFTGVWKYATDWQNVFRTYDRDNSGMIDKNELKQALSGFGYRLSDQFHDILIRKFDRQGRGQIAFDDFIQGCIVLQRLTDIFRRYDTDQDGWIQVSYEQYLSMVFSIV
notes: ALG-2 (PDCD6), murine, 1-191 amino acids with I92A (pocket 3); source: E. coli, purified (as GST-ALG-2)
B7: binds [5].

B8: GST-ALG-2 W89A (natural protein, mouse, UniProt P12815 1-191, looked up)
chain: MAAYSYRPGPGGGPGPAAGAALPDQSFLWNVFQRVDKDRSGVISDNELQQALSNGTWTPFNPVTVRSIISMFDRENKAGVNFSEFTGVAKYITDWQNVFRTYDRDNSGMIDKNELKQALSGFGYRLSDQFHDILIRKFDRQGRGQIAFDDFIQGCIVLQRLTDIFRRYDTDQDGWIQVSYEQYLSMVFSIV
notes: ALG-2 (PDCD6), murine, 1-191 amino acids with W89A (pocket 3); source: E. coli, purified (as GST-ALG-2)
B8: binds [5].

With B9 the Kd [6] was 32.4 ± 6.6 nM.

B10: His-SOUL1-143 (domain or fragment, mouse, UniProt Q9WU63 1-143, looked up)
chain: MAEEPEPDLGVAEGSEDQALEMPSWKAPEDIDPQPGSYEIRHYGPAKWVSTCVESLDWDSAIQTGFTKLNGYIQGKNEKEMKIKLTAPVTSYVEPGSSPFSESTITISLYIPSEQQPDPPRPSESDVFIEDRAEMTVFVRSFD
notes: source: E. coli BL21(DE3) with pGroESL, purified (Ni-NTA-agarose, Sephadex G-25)
In the case of B10, the Kd (delta3-23ALG-2^WT [1]) is reported as 1300 nM and the “stoichiometry N” value (delta3-23ALG-2^WT [1]) is reported as 1.

B11: His-SOUL1-111 (domain or fragment, mouse, UniProt Q9WU63 1-111, looked up)
chain: MAEEPEPDLGVAEGSEDQALEMPSWKAPEDIDPQPGSYEIRHYGPAKWVSTCVESLDWDSAIQTGFTKLNGYIQGKNEKEMKIKLTAPVTSYVEPGSSPFSESTITISLYI
notes: SOUL (HEBP2), murine, residues 1-111; source: E. coli BL21(DE3) with pGroESL, purified (Ni-NTA-agarose, Sephadex G-25)
B11: binds [7].

B12: His-SOUL mutant (36-111/126-205) without two PRRs (domain or fragment, mouse, UniProt Q9WU63 36-205, looked up)
chain: GSYEIRHYGPAKWVSTCVESLDWDSAIQTGFTKLNGYIQGKNEKEMKIKLTAPVTSYVEPGSSPFSESTITISLYIDVFIEDRAEMTVFVRSFDGFSSGQKNQEQLLTLANILREEGKVFNEKVFYTAGYSSPFQLLDRNNEVWLIQKNEPSVENK
notes: as for B10
B12: binds [7].
